Reference: the Immune Epitope Database (IEDB)
Values belong to the sequence of their own block, whether it stands above or below them.

Tests used:
HLA-A*02:01 [1] = test: IEDB peptide-MHC binding, purified MHC/competitive/fluorescence; filed as Kd, often an IC50 or EC50 that approximates it; ≥ and ≤ were set here for values at or beyond the usual limits of such assays
HLA-A*02:06 = test: as above
HLA-A*26:01 = test: IEDB peptide-MHC binding, purified MHC/direct/fluorescence; filed as Kd, often an IC50 or EC50 that approximates it; ≥ and ≤ were set here for values at or beyond the usual limits of such assays
HLA-A*03:01 = test: as above
HLA-B*58:01 = test: as above
HLA-A*69:01 = test: as above
HLA-A*02:01 [2] = test: as above
HLA-B*15:01 [3] = test: as above
HLA-B*08:01 [4] = test: as above
HLA-A*01:01 [5] = test: as above
HLA-A*11:01 [6] = test: as above
HLA-B*07:02 = test: as above
HLA-A*31:01 = test: as above
HLA-B*27:05 [7] = test: as above
HLA-A*24:03 = test: as above
HLA-B*40:01 = test: as above
HLA-A*02:11 = test: IEDB peptide-MHC binding, purified MHC/competitive/fluorescence; filed as Kd, often an IC50 or EC50 that approximates it; ≥ and ≤ were set here for values at or beyond the usual limits of such assays; details: source organism: Pseudomonas putida F1
HLA-A*24:02 = test: as above
HLA-A*30:01 [8] = test: as above
HLA-B*15:17 [9] = test: as above; details: source organism: Human immunodeficiency virus 1
HLA-B*18:01 [10] = test: as above; details: source organism: Human immunodeficiency virus 1
HLA-B*57:01 [11] = test: as above; details: source organism: Human immunodeficiency virus 1
HLA-B*15:01 [12] = test: as above; details: source organism: Human immunodeficiency virus 1
HLA-A*01:01 [13] = test: as above; details: source organism: Human immunodeficiency virus 1
HLA-A*11:01 [14] = test: as above; details: source organism: Human immunodeficiency virus 1
HLA-A*02:03 = test: as above; details: source organism: Human immunodeficiency virus 1
HLA-A*30:01 [15] = test: IEDB peptide-MHC binding, purified MHC/direct/fluorescence; filed as Kd, often an IC50 or EC50 that approximates it; ≥ and ≤ were set here for values at or beyond the usual limits of such assays
HLA-B*35:01 = test: as above
HLA-B*27:05 [16] = test: IEDB peptide-MHC binding, purified MHC/competitive/fluorescence; filed as Kd, often an IC50 or EC50 that approximates it; ≥ and ≤ were set here for values at or beyond the usual limits of such assays
HLA-A*02:12 = test: IEDB peptide-MHC binding, purified MHC/direct/fluorescence; filed as Kd, often an IC50 or EC50 that approximates it; ≥ and ≤ were set here for values at or beyond the usual limits of such assays; details: source organism: Ravn virus - Ravn, Kenya, 1987
HLA-B*15:17 [17] = test: as above
HLA-A*29:02 = test: as above; details: source organism: Ravn virus - Ravn, Kenya, 1987
HLA-B*44:02 = test: as above; details: source organism: Ravn virus - Ravn, Kenya, 1987
HLA-B*18:01 [18] = test: as above
HLA-B*57:01 [19] = test: as above
HLA-B*51:01 = test: as above
HLA-B*46:01 = test: as above; details: source organism: Mycobacterium tuberculosis
HLA-B*48:01 = test: as above; details: source organism: Mycobacterium tuberculosis
HLA-B*08:02 = test: as above; details: source organism: Mycobacterium tuberculosis CDC1551
HLA-B*15:09 = test: as above; details: source organism: Mycobacterium tuberculosis CDC1551
HLA-B*08:01 [20] = test: IEDB peptide-MHC binding, purified MHC/competitive/fluorescence; filed as Kd, often an IC50 or EC50 that approximates it; ≥ and ≤ were set here for values at or beyond the usual limits of such assays; details: source organism: Mycobacterium tuberculosis CDC1551
[21] = source organism: Shigella boydii Sb227
[22] = source organism: Pseudomonas putida
[23] = source organism: Human immunodeficiency virus 1
[24] = source organism: Corynebacterium glutamicum
[25] = source organism: Escherichia coli
[26] = source organism: Giardia lamblia ATCC 50803
[27] = source organism: Ravn virus - Ravn, Kenya, 1987
[28] = source organism: Marburg virus - Musoke, Kenya, 1980
[29] = source organism: Mycobacterium tuberculosis
[30] = source organism: Mycobacterium tuberculosis CDC1551

Sequence: GLDDSALDA
Kd (HLA-A*02:01 [1]; [21]): 0.402 µM | Kd (HLA-A*02:06; [21]): 2.1 µM

Kd (HLA-A*26:01; [22]): ≥ 20 µM | Kd (HLA-A*03:01; [22]): ≥ 20 µM | Kd (HLA-B*58:01; [22]): ≥ 20 µM | Kd (HLA-A*69:01; [22]): 0.712 µM | Kd (HLA-A*02:01 [2]; [22]): 0.409 µM | Kd (HLA-B*15:01 [3]; [22]): 3.7 µM | Kd (HLA-B*08:01 [4]; [22]): 7.12 µM | Kd (HLA-A*01:01 [5]; [22]): ≥ 20 µM | Kd (HLA-A*11:01 [6]; [22]): ≥ 20 µM | Kd (HLA-B*07:02; [22]): 0.33 µM | Kd (HLA-A*31:01; [22]): 0.991 µM | Kd (HLA-B*27:05 [7]; [22]): ≥ 20 µM | Kd (HLA-A*24:03; [22]): ≥ 20 µM | Kd (HLA-B*40:01; [22]): ≥ 20 µM | Kd (HLA-A*02:11): ≤ 0.001 µM
Sequence: VMTEGRHAV

Sequence: IYNTVVLTI
Kd (HLA-A*24:02; source organism: Vibrio parahaemolyticus AQ3810): 0.0004 µM

Sequence: KSLYNTVAVLY
Kd (HLA-A*30:01 [8]; [23]): 4.78 µM | Kd (HLA-B*15:17 [9]): 0.484 µM | Kd (HLA-B*18:01 [10]): 0.275 µM | Kd (HLA-B*57:01 [11]): 4.82 µM | Kd (HLA-B*15:01 [12]): ≥ 20 µM | Kd (HLA-A*01:01 [13]): 4.46 µM | Kd (HLA-A*11:01 [14]): ≥ 20 µM | Kd (HLA-A*02:06; [23]): 0.3 µM | Kd (HLA-A*02:03): ≥ 20 µM

Kd (HLA-A*30:01 [15]; [24]): ≥ 10 µM | Kd (HLA-A*26:01; [24]): ≥ 20 µM | Kd (HLA-A*03:01; [24]): ≥ 20 µM | Kd (HLA-B*58:01; [24]): ≥ 20 µM | Kd (HLA-A*69:01; [24]): ≥ 20 µM | Kd (HLA-A*02:01 [2]; [24]): ≥ 20 µM | Kd (HLA-B*15:01 [3]; [24]): ≥ 20 µM | Kd (HLA-B*08:01 [4]; [24]): 2.72 µM | Kd (HLA-A*01:01 [5]; [24]): ≥ 20 µM | Kd (HLA-A*11:01 [6]; [24]): ≥ 20 µM | Kd (HLA-B*07:02; [24]): 0.0536 µM | Kd (HLA-A*31:01; [24]): ≥ 20 µM | Kd (HLA-B*27:05 [7]; [24]): ≥ 20 µM | Kd (HLA-A*24:03; [24]): 13.1 µM | Kd (HLA-B*35:01; [24]): 0.893 µM | Kd (HLA-B*40:01; [24]): ≥ 20 µM
Sequence: IVAWTRTAT

Sequence: PYPYLFYKF
Kd (HLA-A*24:02; source organism: Vibrio cholerae B33): ≤ 0.0001 µM

Kd (HLA-A*30:01 [15]; [25]): ≥ 10 µM | Kd (HLA-A*26:01; [25]): ≥ 20 µM | Kd (HLA-A*03:01; [25]): ≥ 20 µM | Kd (HLA-B*58:01; [25]): ≥ 20 µM | Kd (HLA-A*69:01; [25]): ≥ 20 µM | Kd (HLA-A*02:01 [2]; [25]): ≥ 20 µM | Kd (HLA-B*15:01 [3]; [25]): 3.73 µM | Kd (HLA-B*08:01 [4]; [25]): 0.849 µM | Kd (HLA-A*01:01 [5]; [25]): ≥ 20 µM | Kd (HLA-A*11:01 [6]; [25]): ≥ 20 µM | Kd (HLA-B*07:02; [25]): 0.0276 µM | Kd (HLA-A*31:01; [25]): ≥ 20 µM | Kd (HLA-B*27:05 [7]; [25]): ≥ 20 µM | Kd (HLA-A*24:03; [25]): ≥ 5 µM | Kd (HLA-B*35:01; [25]): 0.0256 µM | Kd (HLA-B*40:01; [25]): ≥ 20 µM
Sequence: LAAPCRNAL

Kd (HLA-A*24:02; source organism: Escherichia coli E22): ≤ 0.0001 µM
Sequence: IYLRRYFEI

Sequence: EYARQVQMI
Kd (HLA-A*24:02; source organism: Vibrio vulnificus YJ016): ≤ 0.001 µM

Kd (HLA-B*27:05 [16]; source organism: Escherichia coli str. K-12 substr. MG1655): 0.285 µM
Sequence: GRQAPTADV

Sequence: GRADTKILF
Kd (HLA-B*27:05 [16]; source organism: Influenza A virus (A/swine/Hong Kong/4/1976(H3N2))): 0.0741 µM

Sequence: RQVCFFSAT
Kd (HLA-A*02:01 [1]; [26]): 3.27 µM | Kd (HLA-A*02:06; [26]): 0.0063 µM

Sequence: NLFDWMHFL
Kd (HLA-A*02:12): 0.006 µM | Kd (HLA-A*30:01 [15]; [27]): ≥ 20 µM | Kd (HLA-B*15:17 [17]; [27]): ≥ 20 µM | Kd (HLA-A*29:02): 2.42 µM | Kd (HLA-B*44:02): ≥ 20 µM | Kd (HLA-B*18:01 [18]; [27]): ≥ 20 µM | Kd (HLA-B*58:01; [27]): ≥ 20 µM | Kd (HLA-B*57:01 [19]; [27]): ≥ 20 µM | Kd (HLA-A*69:01; [28]): 0.0025 µM | Kd (HLA-A*02:01 [2]; [28]): ≤ 0.001 µM | Kd (HLA-B*15:01 [3]; [27]): ≥ 20 µM | Kd (HLA-B*07:02; [27]): ≥ 20 µM | Kd (HLA-B*51:01; [27]): ≥ 20 µM | Kd (HLA-B*40:01; [27]): ≥ 20 µM

Sequence: ALRSRWRAL
Kd (HLA-B*46:01): ≥ 20 µM | Kd (HLA-B*15:17 [17]; [29]): ≥ 20 µM | Kd (HLA-B*18:01 [18]; [29]): ≥ 20 µM | Kd (HLA-B*48:01): ≥ 20 µM | Kd (HLA-A*03:01; [29]): ≥ 20 µM | Kd (HLA-B*58:01; [29]): ≥ 20 µM | Kd (HLA-B*57:01 [19]; [29]): ≥ 20 µM | Kd (HLA-A*69:01; [29]): ≥ 20 µM | Kd (HLA-B*15:01 [3]; [29]): 0.504 µM | Kd (HLA-B*08:02): ≥ 20 µM | Kd (HLA-A*01:01 [5]; [29]): ≥ 20 µM | Kd (HLA-A*11:01 [6]; [29]): ≥ 20 µM | Kd (HLA-B*07:02; [29]): 0.0595 µM | Kd (HLA-B*15:09): ≥ 20 µM | Kd (HLA-A*31:01; [29]): ≥ 20 µM | Kd (HLA-B*27:05 [7]; [29]): ≥ 20 µM | Kd (HLA-B*51:01; [29]): ≥ 20 µM | Kd (HLA-B*40:01; [29]): ≥ 20 µM | Kd (HLA-A*30:01 [8]; [30]): 0.132 µM | Kd (HLA-A*02:01 [1]; [30]): ≥ 20 µM | Kd (HLA-B*08:01 [20]): 0.014 µM | Kd (HLA-A*02:06; [30]): 0.556 µM
